Reference: the nanobody polyreactivity screen of Harvey et al. (2022)

Assay: yeast display, Sf9 membrane polyspecificity reagent, FACS + sequencing; frameworks hold sequencing errors
How it was run: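 Genes from sorted yeast were amplified by colony PCR, read by MiSeq 2 × 250 sequencing and filtered on CDR length. These cells carried a synthetic nanobody library in Saccharomyces cerevisiae BJ5465 and were sorted by FACS into low and high (top ~1%) gates on anti-HA and streptavidin fluorescence. Polyreactivity is labelled according to the gate of origin.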

Row | Sequence | polyreactivity (PSR sort gate)
1 | QVQLVESGGGLVQAGGSLRLSCAASGRTFVDNGMGWYRQAPGKERELVAAITYSGGGTYYADSVKGRFTISRDNAKNTVYLQMNSLKPEDTAVYYCNAELGPVDYYGGVTPEYDYWGQGTQVTVSS | low polyreactivity
2 | QVQLVESGGGLVQAGGSLRLSCAASGRTFVFNAMGWYRQAPGKERELVAAISRSGGSTYYADSVKGRFTISRDNAKNTVYLQMNSLKTEDTAVYYCAADTPYLRRRLGMDYWGQGTQVTVSS | high polyreactivity
3 | QVQLVESGGGLVQAGGSLRLSCAASGRTFVFNDMGWYRQAPGKERELVAAITKNGGSTYYADSVKGRFTISRDTAKNTVYLHMNSLKPEDTAVYYSNASFQYYDYWGQGTQVTVSS | low polyreactivity
4 | QVQLVESGGGLVQAGGSLRLSCAASGRTFVFYAMGWYRPAPGKERQLVAAITSGTSTNYADSVKGRFTISRDNAKNTGYLQMNSLNPEDTAVYYCAAYWTDLTYSIGFGYWGQGTQVTVSS | low polyreactivity
5 | QVQLVESGGGLVQAGGSLRLSCAASGRTFVHNDMGWYRQAPGKERQLVAAINVSDGSTYYADSVKGRFTISRDNAKNTVYFQMNSLKPEDTAVYYCAKASYIIFRFEYRSGYDYWGQGTQVTVSS | low polyreactivity
6 | QVQLVESGGGLVQAGGSLRLSCAASGRTFVHYAMGWYRPAPGKERELVAAITWNGGRTYYADSVKGRFTISRDNAKNTVYLQMNSLKPEDTAVYYCAADGKYYHRRPGWPIYDYWGQGTQVTVSS | high polyreactivity
7 | QVQLVESGGGLVQAGGSLRLSCAASGRTFVIYDMGWYRQAPGKERELVAGITRSGGSTYADSVKGRFTISRDNAKNTVYLQMNSLKPEDTAVYYCARRKLYHKSPYDYWGQGTQVTVSS | low polyreactivity
8 | QVQLVESGGGLVQAGGSLRLSCAASGRTFVKNAMGWYRLAPGKERELVAAISRRGGSTYYADSVKGRFTISRDNAKNTVYLQMNSRKPEDTAVYYCAAPYTRPTTGYDYWGQGTQVTVSS | high polyreactivity
9 | QVQLVESGGGLVQAGGSLRLSCAASGRTFVKNAMGWYRQAPGKERELVATISSSGASTRYADSVKGRFTISRDNAKNTVYLQMNSLKPDDSAVYYCAAGYGFPRDYWGQGTQVTVSS | high polyreactivity
10 | QVQLVESGGGLVQAGGSLRLSCAASGRTFVKNAMGWYRQAPGKERELVAVISQSGGSTYYADSVKGRFTISRDNAKNTVYLQMNCLKPEDTAVYYCAARYSYYRQGDSWYNYNYWGQGTQVTVSS | high polyreactivity
11 | QVQLVESGGGLVQAGGSLRLSCAASGRTFVKYAMGWYRQAPGKERELVAAISWSGGSTYYADSVKGRFTISRDKAKNTVYLQMNSLKPEDTAVYYCAAPSSRGQGRNFDYWGQGTQVTVSS | high polyreactivity
12 | QVQLVESGGGLVQAGGSLRLSCAASGRTFVLNAMGWYRPAPGKERELVAAITLGGGSTYADSVKGRFTISRDNAKNTVYLQMNSLKPEDTAVYYCAADFHYPAFEYWGQGTQVTVSS | low polyreactivity
13 | QVQLVESGGGLVQAGGSLRLSCAASGRTFVPYAMGRYRQAPGKERELVAAISSSGGSTYYADSVKGRFTISRDNAKNTVYLQMNSLKPEDTAVYFCAAKSRKGGDYWGQGTQVTVSS | high polyreactivity
14 | QVQLVESGGGLVQAGGSLRLSCAASGRTFVPYAMGWYRQAPGKERELVAAITWSGGRTRYADSVKGRFTISRDNAKNTVYLQMNSLKPEDTAVYYCARYYWLYSSSYDYWGQGTQVTVSS | high polyreactivity
15 | QVQLVESGGGLVQAGGSLRLSCAASGRTFVPYDMGWYRQAPGKERELVAAISSGDSTNYTDSVKGRFTISRDNAKNTVYLQMNSLKPEDTAVYYCAADLTYTMDHWGQGTQVTVSS | low polyreactivity
16 | QVQLVESGGGLVQAGGSLRLSCAASGRTFVQNAMGWYRQAPGKERELVAAITWSTSGTYYADSVKGRFTISRDNAKNTVYLQMNSLKPEDTAVYYCAKYLAAYTGGGGYWGQGTQVTVSS | low polyreactivity
